The Kd is the free concentration of one partner at which half of the binding sites on the other are occupied at equilibrium, for simple one-to-one binding.

The results in this text go back to the Immune Epitope Database (IEDB).

In one experiment the target is HLA-B*07:02. Briefly: IEDB peptide-MHC binding, purified MHC/competitive/radioactivity; filed as Kd, often an IC50 or EC50 that approximates it; ≥ and ≤ were set here for values at or beyond the usual limits of such assays.
Another experiment deals with HLA-B*35:01. The experiment is described as above.
Experiment [1] addresses HLA-B*51:01. The description is as above.
The target in another experiment is HLA-B*53:01. The experiment is described as above.
The target of another experiment is HLA-B*54:01. The description is as above.
Experiment [2] has as its target HLA-A*02:01. Described as above.
Experiment [3] has as its target HLA-A*02:01. The experiment is described as follows: IEDB peptide-MHC binding, purified MHC/direct/fluorescence; filed as Kd, often an IC50 or EC50 that approximates it; ≥ and ≤ were set here for values at or beyond the usual limits of such assays. The note with it: source organism: Orthohantavirus andesense.
For a further experiment, the target named is HLA-A*03:01. Described as above. To be noted: source organism: Orthohantavirus tulaense.
The target in experiment [4] is HLA-A*26:01. Briefly: IEDB peptide-MHC binding, purified MHC/competitive/fluorescence; filed as Kd, often an IC50 or EC50 that approximates it; ≥ and ≤ were set here for values at or beyond the usual limits of such assays. The note with it: source organism: Orthohantavirus tulaense.
The next experiment deals with HLA-B*15:01. The experiment is described as above. The note with it: source organism: Orthohantavirus tulaense.
For experiment [5], the target named is HLA-B*18:01. The experiment is described as above. To be noted: source organism: Orthohantavirus tulaense.
The next experiment deals with HLA-B*27:03. The description is as above. The note with it: source organism: Orthohantavirus tulaense.
Experiment [6] deals with HLA-B*51:01. Described as above. The note with it: source organism: Orthohantavirus tulaense.
A further experiment addresses HLA-B*57:01. The description is as above. To be noted: source organism: Orthohantavirus tulaense.
The next experiment addresses HLA-A*02:02. Briefly: IEDB peptide-MHC binding, purified MHC/competitive/radioactivity; filed as Kd, often an IC50 or EC50 that approximates it; ≥ and ≤ were set here for values at or beyond the usual limits of such assays. The note with it: source organism: Trypanosoma cruzi.
For another experiment, the target named is HLA-A*02:03. The description is as above. To be noted: source organism: Trypanosoma cruzi.
For a further experiment, the target named is HLA-A*02:06. The description is as above.
The next experiment has as its target HLA-A*68:02. The experiment is described as above.
The next experiment addresses HLA-A*01:01. The description is as above. To be noted: source organism: SARS coronavirus Tor2.
The target in another experiment is HLA-A*23:01. The experiment is described as above. The note with it: source organism: SARS coronavirus Tor2.
A further experiment addresses HLA-A*24:02. Described as above. The note with it: source organism: SARS coronavirus Tor2.
Experiment [7] concerns the target HLA-A*26:01. The description is as above. To be noted: source organism: SARS coronavirus Tor2.
The target of the next experiment is HLA-A*29:02. Described as above. The note with it: source organism: SARS coronavirus Tor2.
The target of the next experiment is HLA-A*30:02. The description is as above. To be noted: source organism: SARS coronavirus Tor2.
Experiment [8] concerns the target HLA-B*18:01. The description is as above.
The next experiment deals with HLA-B*40:01. The description is as above.
A further experiment addresses HLA-B*40:02. The experiment is described as above.
A further experiment addresses HLA-B*44:02. Described as above.
The target in the next experiment is HLA-B*44:03. The experiment is described as above.
For another experiment, the target named is HLA-B*45:01. The experiment is described as above.
Setting [9] is: source organism: SARS coronavirus Tor2.
Setting [10] is: source organism: Vaccinia virus WR.
Setting [11] is: source organism: Trypanosoma cruzi.
The mark [12] stands for this setting: source organism: Lymphocytic choriomeningitis virus (strain Armstrong).
Where [13] appears, read: source organism: Mammarenavirus brazilense.
Where [14] appears, read: source organism: Mammarenavirus machupoense.
[15] abbreviates: source organism: Mammarenavirus lassaense.

Take NPIQLSSYSL: the Kd was determined as 0.416 µM with HLA-B*07:02 (setting [9]); 0.395 µM in the experiment with HLA-B*35:01 (setting [9]); 0.246 µM with HLA-B*51:01 [1] (setting [9]); 0.531 µM with HLA-B*53:01 (setting [9]); 1.77 µM in the experiment with HLA-B*54:01 (setting [9]).

Consider KPAMSTYSDI, for which the Kd with HLA-B*07:02 (setting [10]) was 0.161 µM; with HLA-B*35:01 (setting [10]), no less than 63.7 µM; in the experiment with HLA-B*51:01 [1] (setting [10]) it was 14 µM; with HLA-B*53:01 (setting [10]), 8.83 µM; with HLA-B*54:01 (setting [10]), 9.87 µM.

Regarding KPDGSDSMDV, the Kd was 0.244 µM with HLA-B*07:02 (setting [10]); no less than 69.9 µM with HLA-B*35:01 (setting [10]); no less than 69.6 µM with HLA-B*51:01 [1] (setting [10]); no less than 69.9 µM with HLA-B*53:01 (setting [10]); no less than 69.9 µM with HLA-B*54:01 (setting [10]).

For the sequence SLRVLAAGL, the Kd in the experiment with HLA-A*02:01 [2] (source organism: Homo sapiens) is no less than 50 µM.

Take SPGEIKPKF: the Kd is 0.0797 µM with HLA-B*07:02 (setting [10]); 8.55 µM with HLA-B*35:01 (setting [10]); no less than 70.2 µM with HLA-B*51:01 [1] (setting [10]); 0.174 µM with HLA-B*53:01 (setting [10]); no less than 51.1 µM with HLA-B*54:01 (setting [10]).

Turning to LTVILGVLL, the Kd with HLA-A*02:01 [2] (source organism: Homo sapiens) turned out to be 2.63 µM.

Consider APAHVSTIGV, for which the Kd with HLA-B*07:02 (setting [9]) amounted to 0.0344 µM; with HLA-B*35:01 (setting [9]), 10.5 µM; with HLA-B*51:01 [1] (setting [9]), 12.5 µM; in the experiment with HLA-B*53:01 (setting [9]), 17 µM; with HLA-B*54:01 (setting [9]), 3.11 µM.

SLFGAAVSL: the Kd in the experiment with HLA-A*02:01 [3] is no more than 0.0001 µM; with HLA-A*03:01, no less than 20 µM; with HLA-A*26:01 [4], no less than 20 µM; with HLA-B*15:01, 0.0497 µM; in the experiment with HLA-B*18:01 [5] it was no less than 20 µM; with HLA-B*27:03, no less than 20 µM. Besides, the Kd with HLA-B*51:01 [6] and with HLA-B*57:01 was no less than 20 µM each time.

In the case of GLLPLFLLLG, the Kd with HLA-A*02:01 [2] (setting [11]) came out at 0.000154 µM; with HLA-A*02:02, 0.0291 µM; in the experiment with HLA-A*02:03, 0.138 µM; with HLA-A*02:06 (setting [11]), 0.0183 µM; in the experiment with HLA-A*68:02 (setting [11]) it was 7.59 µM.

As to EMRQKHSQAV, the equilibrium dissociation constant (Kd) is no less than 33.9 µM with HLA-A*02:01 [2] (source organism: Homo sapiens), no less than 72.5 µM with HLA-A*02:06 (source organism: Homo sapiens) and 0.512 µM with HLA-A*68:02 (source organism: Homo sapiens).

On to MEAQFLYLY, for which the Kd with HLA-A*01:01 stood at 1.57 µM; with HLA-A*23:01, 16.8 µM; with HLA-A*24:02, 9.6 µM; with HLA-A*26:01 [7], 1.93 µM; in the experiment with HLA-A*29:02, 0.00598 µM; in the experiment with HLA-A*30:02 it was 0.0117 µM. In addition, the Kd in the experiment with HLA-B*18:01 [8] (setting [9]) was found to be 0.000292 µM; with HLA-B*40:01 (setting [9]), 1.85 µM; with HLA-B*40:02 (setting [9]), 2.22 µM; in the experiment with HLA-B*44:02 (setting [9]), 0.00215 µM; with HLA-B*44:03 (setting [9]), 0.000933 µM; with HLA-B*45:01 (setting [9]), 0.0122 µM.

As for ELRSKREQEV, the Kd with HLA-A*02:01 [2] (source organism: Homo sapiens) was 18.8 µM; with HLA-A*02:06 (source organism: Homo sapiens), no less than 72.5 µM; in the experiment with HLA-A*68:02 (source organism: Homo sapiens), 2.53 µM.

As to FLPSDFFPSA, the Kd with HLA-A*02:01 [2] (source organism: Hepatitis B virus) is 0.023 µM.

Regarding LDVLCLSSL, the Kd in the experiment with HLA-B*18:01 [8] (setting [12]) was no less than 22.9 µM; in the experiment with HLA-B*40:01 (setting [12]) it was 6.12 µM; in the experiment with HLA-B*40:02 (setting [12]), 0.0434 µM; with HLA-B*44:02 (setting [12]) it was 7.76 µM; in the experiment with HLA-B*44:03 (setting [12]), 7.54 µM; in the experiment with HLA-B*45:01 (setting [12]) it was 8.17 µM.

As for AENDIVEAL, the Kd with HLA-B*18:01 [8] (setting [13]) was 10.8 µM; with HLA-B*40:01 (setting [13]) it was 0.00587 µM; with HLA-B*40:02 (setting [13]) it was 0.0252 µM; in the experiment with HLA-B*44:02 (setting [13]), 0.0435 µM; with HLA-B*44:03 (setting [13]), 0.108 µM; with HLA-B*45:01 (setting [13]), 1.03 µM.

EEAIRHVRA: the Kd with HLA-B*18:01 [8] (setting [9]) is no less than 55.7 µM; with HLA-B*40:01 (setting [9]), 5.59 µM; with HLA-B*40:02 (setting [9]) it was 5.53 µM; with HLA-B*44:02 (setting [9]) it was 2.78 µM; in the experiment with HLA-B*44:03 (setting [9]), 5.81 µM; in the experiment with HLA-B*45:01 (setting [9]) it was 0.0398 µM.

Take LVVDFSQFSR: the Kd in the experiment with HLA-A*02:01 [2] (source organism: Hepatitis B virus subtype adw2) is no less than 35 µM.

Consider CEEMLDNRAT, for which the Kd is no less than 46.1 µM in the experiment with HLA-B*18:01 [8] (setting [9]); 18.3 µM with HLA-B*40:01 (setting [9]); 8.59 µM with HLA-B*40:02 (setting [9]); 0.56 µM with HLA-B*44:02 (setting [9]); 10.3 µM in the experiment with HLA-B*44:03 (setting [9]); 0.139 µM in the experiment with HLA-B*45:01 (setting [9]).

Take DESKKEINLL: the Kd with HLA-B*18:01 [8] (setting [14]) was 2.88 µM; with HLA-B*40:01 (setting [14]), no less than 69.5 µM; with HLA-B*40:02 (setting [14]) it was no less than 70.8 µM; with HLA-B*44:02 (setting [14]) it was no less than 70.2 µM; with HLA-B*44:03 (setting [14]), no less than 70.1 µM; with HLA-B*45:01 (setting [14]), no less than 70 µM.

As to LTDLGLIYTA, the Kd with HLA-A*02:01 [2] (source organism: Lassa virus GA391) worked out at 0.893 µM.

On to SLHVGTQCA, for which the Kd with HLA-A*02:01 [2] (source organism: Homo sapiens) amounted to 1.44 µM.

Take KEAYCQEFSL: the Kd in the experiment with HLA-B*18:01 [8] (setting [15]) was no less than 36.9 µM; in the experiment with HLA-B*40:01 (setting [15]), 0.0883 µM; with HLA-B*40:02 (setting [15]), 0.00968 µM; with HLA-B*44:02 (setting [15]) it was 4.18 µM; with HLA-B*44:03 (setting [15]), 16.1 µM; in the experiment with HLA-B*45:01 (setting [15]), 5.69 µM.
